doi:10.1101/400432, “The deadly touch: protein denaturation at the water-air interface and how to prevent it” (bioRxiv, 2018)

How the values were obtained:
[1] = biological target: T1, fatty acid synthase subunit encoded by FAS1, twinStrep-II tagged (Saccharomyces cerevisiae) (S. cerevisiae, UniProt P07149 1-2051); experiment: cryo-EM structure; single-particle cryo-EM of purified FAS complex (0.2 mg/ml) on Quantifoil R0.6/1 grids coated with graphene hydrophilized with 1-pyrCA; about 28,000 particles; maps at 4.8 Å (C1) and 4.0 Å (D3); details: both partners purified
T1 construct: Fatty acid synthase subunit encoded by the FAS1 gene, S. cerevisiae; expressed from plasmid pMF639 (pRS315_FAS1-twinStrep-II); also called strep-tagged FAS; beta (beta-domes)
T1 sequence (P07149 whole entry): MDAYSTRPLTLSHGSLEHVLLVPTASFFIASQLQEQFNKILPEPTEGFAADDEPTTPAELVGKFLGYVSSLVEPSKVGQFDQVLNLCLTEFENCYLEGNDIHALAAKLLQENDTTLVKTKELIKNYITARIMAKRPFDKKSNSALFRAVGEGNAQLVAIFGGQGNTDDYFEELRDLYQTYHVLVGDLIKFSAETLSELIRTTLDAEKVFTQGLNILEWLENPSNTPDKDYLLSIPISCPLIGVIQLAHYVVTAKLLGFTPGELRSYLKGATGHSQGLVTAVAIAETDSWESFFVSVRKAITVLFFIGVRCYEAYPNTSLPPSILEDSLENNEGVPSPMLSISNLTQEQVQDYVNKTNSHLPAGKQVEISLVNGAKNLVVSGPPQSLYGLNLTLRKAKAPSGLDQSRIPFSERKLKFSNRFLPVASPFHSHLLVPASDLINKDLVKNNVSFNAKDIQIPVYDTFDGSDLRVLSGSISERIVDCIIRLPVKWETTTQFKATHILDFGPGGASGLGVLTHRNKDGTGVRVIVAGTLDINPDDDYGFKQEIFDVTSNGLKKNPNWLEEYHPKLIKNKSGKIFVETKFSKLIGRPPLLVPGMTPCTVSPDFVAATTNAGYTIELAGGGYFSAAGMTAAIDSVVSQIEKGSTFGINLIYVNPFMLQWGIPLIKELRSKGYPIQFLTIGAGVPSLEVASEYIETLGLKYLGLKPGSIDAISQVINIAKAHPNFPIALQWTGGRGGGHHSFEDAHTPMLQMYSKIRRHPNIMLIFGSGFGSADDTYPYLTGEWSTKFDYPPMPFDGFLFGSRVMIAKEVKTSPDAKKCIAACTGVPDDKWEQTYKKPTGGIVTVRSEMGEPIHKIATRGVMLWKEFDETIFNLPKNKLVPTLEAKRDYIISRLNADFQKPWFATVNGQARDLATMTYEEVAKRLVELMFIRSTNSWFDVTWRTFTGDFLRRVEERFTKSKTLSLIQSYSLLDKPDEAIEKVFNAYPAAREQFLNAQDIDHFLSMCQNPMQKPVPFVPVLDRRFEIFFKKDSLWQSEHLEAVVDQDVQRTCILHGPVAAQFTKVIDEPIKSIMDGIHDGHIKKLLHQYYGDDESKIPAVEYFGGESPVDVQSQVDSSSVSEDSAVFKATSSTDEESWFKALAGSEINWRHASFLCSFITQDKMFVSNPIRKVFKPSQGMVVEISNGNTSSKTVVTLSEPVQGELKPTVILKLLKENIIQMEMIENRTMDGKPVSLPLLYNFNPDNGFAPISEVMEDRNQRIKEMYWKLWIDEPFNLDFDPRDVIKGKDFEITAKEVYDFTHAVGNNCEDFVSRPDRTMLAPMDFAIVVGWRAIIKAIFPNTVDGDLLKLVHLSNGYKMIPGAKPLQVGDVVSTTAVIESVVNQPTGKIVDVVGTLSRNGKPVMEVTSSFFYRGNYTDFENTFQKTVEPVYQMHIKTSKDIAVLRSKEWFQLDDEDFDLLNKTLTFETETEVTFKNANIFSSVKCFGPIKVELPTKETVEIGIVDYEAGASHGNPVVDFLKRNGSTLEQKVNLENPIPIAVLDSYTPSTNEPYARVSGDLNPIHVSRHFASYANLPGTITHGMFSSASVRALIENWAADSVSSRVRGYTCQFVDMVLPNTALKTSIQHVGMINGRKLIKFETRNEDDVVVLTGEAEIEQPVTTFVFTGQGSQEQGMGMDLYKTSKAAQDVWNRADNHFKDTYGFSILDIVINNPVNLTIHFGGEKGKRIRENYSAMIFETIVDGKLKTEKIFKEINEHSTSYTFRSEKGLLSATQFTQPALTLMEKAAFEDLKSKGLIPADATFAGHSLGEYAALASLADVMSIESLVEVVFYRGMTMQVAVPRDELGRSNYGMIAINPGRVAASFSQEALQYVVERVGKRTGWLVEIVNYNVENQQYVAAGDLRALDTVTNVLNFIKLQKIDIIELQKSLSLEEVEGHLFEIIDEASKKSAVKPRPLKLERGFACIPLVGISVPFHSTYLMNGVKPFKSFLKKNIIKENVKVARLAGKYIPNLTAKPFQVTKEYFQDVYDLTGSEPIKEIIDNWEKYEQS

[2] = biological target: the molecule itself; experiment: as above

binding result [1]: binds
B1: fatty acid synthase subunit encoded by FAS2 (Saccharomyces cerevisiae) (enzyme, S. cerevisiae, UniProt P19097 1-1887, looked up)
chain: MKPEVEQELAHILLTELLAYQFASPVRWIETQDVFLKDFNTERVVEIGPSPTLAGMAQRTLKNKYESYDAALSLHREILCYSKDAKEIYYTPDPSELAAKEEPAKEEAPAPTPAASAPAPAAAAPAPVAAAAPAAAAAEIADEPVKASLLLHVLVAHKLKKSLDSIPMSKTIKDLVGGKSTVQNEILGDLGKEFGTTPEKPEETPLEELAETFQDTFSGALGKQSSSLLSRLISSKMPGGFTITVARKYLQTRWGLPSGRQDGVLLVALSNEPAARLGSEADAKAFLDSMAQKYASIVGVDLSSAASASGAAGAGAAAGAAMIDAGALEEITKDHKVLARQQLQVLARYLKMDLDNGERKFLKEKDTVAELQAQLDYLNAELGEFFVNGVATSFSRKKARTFDSSWNWAKQSLLSLYFEIIHGVLKNVDREVVSEAINIMNRSNDALIKFMEYHISNTDETKGENYQLVKTLGEQLIENCKQVLDVDPVYKDVAKPTGPKTAIDKNGNITYSEEPREKVRKLSQYVQEMALGGPITKESQPTIEEDLTRVYKAISAQADKQDISSSTRVEFEKLYSDLMKFLESSKEIDPSQTTQLAGMDVEDALDKDSTKEVASLPNKSTISKTVSSTIPRETIPFLHLRKKTPAGDWKYDRQLSSLFLDGLEKAAFNGVTFKDKYVLITGAGKGSIGAEVLQGLLQGGAKVVVTTSRFSKQVTDYYQSIYAKYGAKGSTLIVVPFNQGSKQDVEALIEFIYDTEKNGGLGWDLDAIIPFAAIPEQGIELEHIDSKSEFAHRIMLTNILRMMGCVKKQKSARGIETRPAQVILPMSPNHGTFGGDGMYSESKLSLETLFNRWHSESWANQLTVCGAIIGWTRGTGLMSANNIIAEGIEKMGVRTFSQKEMAFNLLGLLTPEVVELCQKSPVMADLNGGLQFVPELKEFTAKLRKELVETSEVRKAVSIETALEHKVVNGNSADAAYAQVEIQPRANIQLDFPELKPYKQVKQIAPAELEGLLDLERVIVVTGFAEVGPWGSARTRWEMEAFGEFSLEGCVEMAWIMGFISYHNGNLKGRPYTGWVDSKTKEPVDDKDVKAKYETSILEHSGIRLIEPELFNGYNPEKKEMIQEVIVEEDLEPFEASKETAEQFKHQHGDKVDIFEIPETGEYSVKLLKGATLYIPKALRFDRLVAGQIPTGWNAKTYGISDDIISQVDPITLFVLVSVVEAFIASGITDPYEMYKYVHVSEVGNCSGSGMGGVSALRGMFKDRFKDEPVQNDILQESFINTMSAWVNMLLISSSGPIKTPVGACATSVESVDIGVETILSGKARICIVGGYDDFQEEGSFEFGNMKATSNTLEEFEHGRTPAEMSRPATTTRNGFMEAQGAGIQIIMQADLALKMGVPIYGIVAMAATATDKIGRSVPAPGKGILTTAREHHSSVKYASPNLNMKYRKRQLVTREAQIKDWVENELEALKLEAEEIPSEDQNEFLLERTREIHNEAESQLRAAQQQWGNDFYKRDPRIAPLRGALATYGLTIDDLGVASFHGTSTKANDKNESATINEMMKHLGRSEGNPVIGVFQKFLTGHPKGAAGAWMMNGALQILNSGIIPGNRNADNVDKILEQFEYVLYPSKTLKTDGVRAVSITSFGFGQKGGQAIVVHPDYLYGAITEDRYNEYVAKVSAREKSAYKFFHNGMIYNKLFVSKEHAPYTDELEEDVYLDPLARVSKDKKSGSLTFNSKNIQSKDSYINANTIETAKMIENMTKEKVSNGGVGVDVELITSINVENDTFIERNFTPQEIEYCSAQPSVQSSFAGTWSAKEAVFKSLGVKSLGGGAALKDIEIVRVNKNAPAVELHGNAKKAAEEAGVTDVKVSISHDDLQAVAVAVSTKK
notes: Fatty acid synthase subunit encoded by the FAS2 gene, S. cerevisiae; expressed from plasmid pMF319d (pRS313_FAS2); also called alpha (alpha wheel)
binding result [2]: binds
